Patent US20030060435

Experiments:
[1] = molecular target: human wild-type p53 protein, P04637
[2] = molecular target: T1, mouse wild-type p53 protein, P02340
T1 chain: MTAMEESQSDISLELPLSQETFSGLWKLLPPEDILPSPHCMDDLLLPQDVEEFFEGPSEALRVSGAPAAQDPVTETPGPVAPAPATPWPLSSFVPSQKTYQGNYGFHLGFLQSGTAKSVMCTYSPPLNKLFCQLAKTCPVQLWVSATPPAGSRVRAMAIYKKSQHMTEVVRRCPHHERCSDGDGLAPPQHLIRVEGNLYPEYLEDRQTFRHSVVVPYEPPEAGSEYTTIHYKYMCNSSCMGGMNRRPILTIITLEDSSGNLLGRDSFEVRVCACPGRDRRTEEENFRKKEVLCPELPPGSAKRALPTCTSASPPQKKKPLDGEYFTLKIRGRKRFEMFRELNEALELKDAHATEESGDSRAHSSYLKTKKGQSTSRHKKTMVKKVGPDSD

[3] = molecular target: glyceraldehyde-3-phosphate dehydrogenase

Sequence of human wild-type p53 protein, P04637 (P04637 whole entry, looked up): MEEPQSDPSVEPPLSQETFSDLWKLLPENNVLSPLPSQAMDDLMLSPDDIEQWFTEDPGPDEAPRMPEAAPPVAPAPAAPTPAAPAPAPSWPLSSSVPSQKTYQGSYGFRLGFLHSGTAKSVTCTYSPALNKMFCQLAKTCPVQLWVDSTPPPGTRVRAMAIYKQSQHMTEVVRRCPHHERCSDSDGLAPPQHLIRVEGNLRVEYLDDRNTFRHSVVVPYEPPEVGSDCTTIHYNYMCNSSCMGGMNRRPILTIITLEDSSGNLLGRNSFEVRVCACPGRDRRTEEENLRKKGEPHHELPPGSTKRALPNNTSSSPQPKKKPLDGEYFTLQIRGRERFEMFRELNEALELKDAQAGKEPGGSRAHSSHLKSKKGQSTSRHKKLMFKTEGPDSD

B1: bovine m-calpain (Sigma) (protein)
chain 1: AGIAAKLAKDREAAEGLGSHERAVKYLNQDYAALRDECLEAGALFQDPSFPALPSSLGFKELGPYSSKTRGIEWKRPTEICDNPQFITGGATRTDICQGALGDCWLLAAIASLTLNEEILARVVPLDQSFQENYAGIFHFQFWQYGEWVEVVVDDRLPTKDGELLFVHSAEGSEFWSALLEKAYAKINGCYEALSGGATTEGFEDFTGGIAEWYELRKAPPNLFRIIQKALQKGSLLGCSIDITSAADSEAITFQKLVKGHAYSVTGAEEVESRGSLQKLIRIRNPWGEVEWTGQWNDNCPNWNTVDPEVRETLTRQHEDGEFWMSFNDFLRHYSRLEICNLTPDTLTSDSYKKWKLTKMDGNWRRGSTAGGCRNYPNTFWMNPQYLIKLEEEDEDQEDGESGCTFLVGLIQKHRRRQRKMGEDMHTIGFGIYEVPEELTGQTNIHLSKKFFLTTRARERSDTFINLREVLNRFKLPPGEYIVVPSTFEPNKDGDFCIRVFSEKKADYQVVDDEIEANIDEIDISEDDIDDGFRRLFAQLAGEDAEISAFELQTILRRVLAKRQDIKSDGFSIETCKIMVDMLDSDGSGKLGLKEFYILWTKIQKYQKIYREIDVDRSGTMNSYEMRKALEEAGFKMPCQLHQVIVARFADDDLIIDFDNFVRCLIRLETLFRIFKQLDPENTGMIQLDLISWLSFSVL
chain 2: MFLVNSFLKGGGGGGGGGGLGGGLGNVLGGLISGAGGGGGGGGGGGGGGGGTAMRILGGVISAISEAAAQYNPEPVPPRTHYSNIEANESEEVRQFRRLFAQLAGDDMEVSATELMNILNKVVTRHPDLKTDGFGIDTCRSMVAVMDSDTTGKLGFEEFKYLWNNIKKWQAVYKQFDVDRSGTIGSSELPGAFEAAGFRLNEHLYNMIIRRYSDEGGNMDFDNFISCLVRLDAMFRAFKSLDKDGTGQIQVNIQEWLQLTMYS
- degradation of the in vitro translated protein in reticulocyte lysate with calcium (electrophoresis) [1]: led to the rapid disappearance of the neosynthesized proteins and the appearance of proteolytic fragments
- degradation of the in vitro translated protein in reticulocyte lysate with calcium (electrophoresis) [2]: led to the rapid disappearance of the neosynthesized proteins and the appearance of proteolytic fragments
- degradation of the protein in reticulocyte lysate with calcium and m-calpain [3]: The degradation resistance of other proteins such as dihydrofolate reductase or glyceraldehyde-3-phosphate dehydrogenase under the same experimental conditions
- degradation of the protein in reticulocyte lysate with calcium and m-calpain (dihydrofolate reductase): The degradation resistance of other proteins such as dihydrofolate reductase or glyceraldehyde-3-phosphate dehydrogenase under the same experimental conditions
